Assay results: article PMC7101348, “Modulation of BIN2 kinase activity by HY5 controls hypocotyl elongation in the light” (Nature Communications, 2020)

Assays:
[1] = target: T1, His-BIN2 (full-length BIN2) (Arabidopsis thaliana, UniProt Q39011 1-380); test: cell-based or functional assay
T1 sequence (looked up): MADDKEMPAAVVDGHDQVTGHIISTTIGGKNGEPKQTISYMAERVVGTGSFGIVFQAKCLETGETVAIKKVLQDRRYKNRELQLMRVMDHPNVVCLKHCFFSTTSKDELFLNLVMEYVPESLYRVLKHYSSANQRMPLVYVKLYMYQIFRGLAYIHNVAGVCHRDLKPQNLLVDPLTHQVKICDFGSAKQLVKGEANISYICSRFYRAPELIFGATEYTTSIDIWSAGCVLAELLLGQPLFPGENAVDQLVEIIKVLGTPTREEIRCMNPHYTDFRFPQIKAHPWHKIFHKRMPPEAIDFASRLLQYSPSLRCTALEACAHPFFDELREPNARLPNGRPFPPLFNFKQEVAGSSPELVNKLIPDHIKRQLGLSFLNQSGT

[2] = target: T1, His-BIN2 (full-length BIN2); test: pull-down; 1 μg GST-HY5 and 1 μg His-BIN2 in 1 ml binding buffer (25 mM Tris-Cl pH 7.5, 100 mM NaCl, 0.1% NP40), 4 °C; GST beads; washed with 25 mM Tris-Cl pH 7.5, 500 mM NaCl; blots with anti-GST and anti-His; conditions: both partners purified

B1: GST-HY5 (full-length HY5, HY5-F) (natural protein, Arabidopsis thaliana, UniProt O24646 1-168, looked up)
chain: MQEQATSSLAASSLPSSSERSSSSAPHLEIKEGIESDEEIRRVPEFGGEAVGKETSGRESGSATGQERTQATVGESQRKRGRTPAEKENKRLKRLLRNRVSAQQARERKKAYLSELENRVKDLENKNSELEERLSTLQNENQMLRHILKNTTGNKRGGGGGSNADASL
In the case of B1, the “in vitro kinase assay: BIN2-mediated phosphorylation of BZR1 with recombinant full-length HY5 (HY5-F) added, against the control” value [1] is reported as ~2 fold.

B2: GST-HY5-M (HY5 L137D) (natural protein, Arabidopsis thaliana, UniProt O24646 1-168, looked up)
chain: MQEQATSSLAASSLPSSSERSSSSAPHLEIKEGIESDEEIRRVPEFGGEAVGKETSGRESGSATGQERTQATVGESQRKRGRTPAEKENKRLKRLLRNRVSAQQARERKKAYLSELENRVKDLENKNSELEERLSTDQNENQMLRHILKNTTGNKRGGGGGSNADASL
notes: HY5, Arabidopsis, with Leu137 changed to Asp; Probably full-length HY5; also called mutated HY5; source: recombinant protein, purified
B2: binds [2].

B3: GST-HY5-C (HY5 aa 78-168) (domain or fragment, Arabidopsis thaliana, UniProt O24646 78-168, looked up)
chain: RKRGRTPAEKENKRLKRLLRNRVSAQQARERKKAYLSELENRVKDLENKNSELEERLSTLQNENQMLRHILKNTTGNKRGGGGGSNADASL
For B3, the “in vitro kinase assay: BIN2-mediated phosphorylation of BZR1 with recombinant C-terminal domain of HY5 (HY5-C) added, against the control” value [1] was ~2 fold.
